According to paper PMC10889563, “The Multienzyme Complex Nature of Dehydroepiandrosterone Sulfate Biosynthesis” (International Journal of Molecular Sciences, 2024):

T1: full-length steroid 17-alpha-hydroxylase/17,20-lyase (CYP17A1full) (UniProt P05093 1-508)
T1 construct: steroid 17-alpha-hydroxylase/17,20 lyase (CYP17A1), full-length recombinant form; also called full-length CYP17A1
T1 sequence (looked up): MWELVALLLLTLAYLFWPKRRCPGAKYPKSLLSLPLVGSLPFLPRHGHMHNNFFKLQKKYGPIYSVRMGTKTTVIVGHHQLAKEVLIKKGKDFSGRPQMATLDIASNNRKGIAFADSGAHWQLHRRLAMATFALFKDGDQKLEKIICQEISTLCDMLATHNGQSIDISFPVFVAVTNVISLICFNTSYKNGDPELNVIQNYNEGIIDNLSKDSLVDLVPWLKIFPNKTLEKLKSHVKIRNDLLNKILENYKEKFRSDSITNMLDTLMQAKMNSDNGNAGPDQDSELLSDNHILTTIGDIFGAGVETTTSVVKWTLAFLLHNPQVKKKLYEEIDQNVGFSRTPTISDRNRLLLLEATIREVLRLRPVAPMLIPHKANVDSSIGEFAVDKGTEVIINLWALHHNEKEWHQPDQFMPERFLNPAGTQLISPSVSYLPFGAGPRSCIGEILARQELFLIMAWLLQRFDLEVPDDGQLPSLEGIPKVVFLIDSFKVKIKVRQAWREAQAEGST

B1: sulfotransferase SULT1E1 (enzyme, human, UniProt P49888 1-294, looked up)
chain: MNSELDYYEKFEEVHGILMYKDFVKYWDNVEAFQARPDDLVIATYPKSGTTWVSEIVYMIYKEGDVEKCKEDVIFNRIPFLECRKENLMNGVKQLDEMNSPRIVKTHLPPELLPASFWEKDCKIIYLCRNAKDVAVSFYYFFLMVAGHPNPGSFPEFVEKFMQGQVPYGSWYKHVKSWWEKGKSPRVLFLFYEDLKEDIRKEVIKLIHFLERKPSEELVDRIIHHTSFQEMKNNPSTNYTTLPDEIMNQKLSPFMRKGITGDWKNHFTVALNEKFDKHYEQQMKESTLKFRTEI
notes: cytosolic sulfotransferase SULT1E1, human, recombinant; The oligomeric state in the assay is not known to the authors; source: E. coli DH5α, purified (Ni-NTA agarose, hydroxyapatite)

Columns and labels:
Settings in all cases: both partners purified
[1] = target: T2, NADPH-dependent cytochrome P450 reductase (CPR) (UniProt P16435 1-677, FAD and FMN cofactors; species (human assumed, rat possible) and construct limits are only in Figure S5 or cited work); test: SPR; CPR covalently immobilised on CM5 chip via amino groups; SULT1E1 or SULT2A1 as analyte; HBS-EP+, 25 °C; no PAPS; 1:1 Langmuir model
[2] = target: T2, NADPH-dependent cytochrome P450 …; test: SPR; CPR covalently immobilised on CM5 chip via amino groups; SULT1E1 or SULT2A1 as analyte; HBS-EP+, 25 °C; with 1 mM PAPS; 1:1 Langmuir model
[3] = target: T1, full-length steroid …; test: SPR; SULT1E1 or SULT2A1 covalently immobilised on CM5 chip via amino groups; CYP17A1full, CYP17A1tr or CYB5A injected at 50 to 5000 nM in HBS-EP+ (10 mM HEPES, 150 mM NaCl, 3 mM EDTA, 0.05% P20, pH 7.4), 25 °C; no PAPS; 1:1 Langmuir model
[4] = target: T1, full-length steroid …; test: SPR; SULT1E1 or SULT2A1 covalently immobilised on CM5 chip via amino groups; CYP17A1full or CYB5A injected at 50 to 5000 nM in HBS-EP+, 25 °C; with 1 mM PAPS; 1:1 Langmuir model
[5] = target: B1; test: SPR; SULT1E1 or SULT2A1 covalently immobilised on CM5 chip via amino groups; CYP17A1full, CYP17A1tr or CYB5A injected at 50 to 5000 nM in HBS-EP+ (10 mM HEPES, 150 mM NaCl, 3 mM EDTA, 0.05% P20, pH 7.4), 25 °C; no PAPS; 1:1 Langmuir model
[6] = target: B1; test: SPR; SULT1E1 or SULT2A1 covalently immobilised on CM5 chip via amino groups; CYP17A1full or CYB5A injected at 50 to 5000 nM in HBS-EP+, 25 °C; with 1 mM PAPS; 1:1 Langmuir model

T2 sequence (P16435 whole entry): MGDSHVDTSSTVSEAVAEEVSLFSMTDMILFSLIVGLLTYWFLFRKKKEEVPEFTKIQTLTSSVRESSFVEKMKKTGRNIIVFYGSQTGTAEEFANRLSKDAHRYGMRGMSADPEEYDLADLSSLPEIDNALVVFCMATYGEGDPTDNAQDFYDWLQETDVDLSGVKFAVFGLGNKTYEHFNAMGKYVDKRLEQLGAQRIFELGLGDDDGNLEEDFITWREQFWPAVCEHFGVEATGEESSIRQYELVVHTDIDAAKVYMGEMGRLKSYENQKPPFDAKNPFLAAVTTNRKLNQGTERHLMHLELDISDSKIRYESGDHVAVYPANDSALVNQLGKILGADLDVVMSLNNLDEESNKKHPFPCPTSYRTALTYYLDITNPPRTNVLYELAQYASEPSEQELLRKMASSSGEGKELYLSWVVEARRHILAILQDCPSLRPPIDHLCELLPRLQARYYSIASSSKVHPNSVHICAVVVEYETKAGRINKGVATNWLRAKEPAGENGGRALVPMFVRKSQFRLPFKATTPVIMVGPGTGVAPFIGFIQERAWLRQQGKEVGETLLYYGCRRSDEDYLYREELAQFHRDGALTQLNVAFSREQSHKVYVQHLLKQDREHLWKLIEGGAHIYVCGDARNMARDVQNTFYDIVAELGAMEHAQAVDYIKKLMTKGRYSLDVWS

Row | Kd [1] | koff [1] | kon [1] | Kd [2] | koff [2] | kon [2] | Kd [3] | koff [3] | kon [3] | Kd [4] | koff [4] | kon [4] | Kd [5] | koff [5] | kon [5] | Kd [6] | koff [6] | kon [6] | Binder
1 | 1370 ± 126 nM | 0.00078 s⁻¹ | 570 M⁻¹ s⁻¹ | 957 ± 89 nM | 0.00051 s⁻¹ | 670 M⁻¹ s⁻¹ | 124 ± 11 nM | 0.00055 s⁻¹ | 4450 M⁻¹ s⁻¹ | 105 ± 12 nM | 0.00137 s⁻¹ | 13100 M⁻¹ s⁻¹ |  |  |  |  |  |  | sulfotransferase SULT2A1 (enzyme, human, UniProt Q06520 1-285, looked up, cytosolic sulfotransferase SULT2A1, human, recombinant; source: E. coli Rosetta, purified (Ni-NTA agarose, hydroxyapatite)) MSDDFLWFEGIAFPTMGFRSETLRKVRDEFVIRDEDVIILTYPKSGTNWLAEILCLMHSKGDAKWIQSVPIWERSPWVESEIGYTALSETESPRLFSSHLPIQLFPKSFFSSKAKVIYLMRNPRDVLVSGYFFWKNMKFIKKPKSWEEYFEWFCQGTVLYGSWFDHIHGWMPMREEKNFLLLSYEELKQDTGRTIEKICQFLGKTLEPEELNLILKNSSFQSMKENKMSNYSLLSVDYVVDKAQLLRKGVSGDWKNHFTVAQAEDFDKLFQEKMADLPRELFPWE
2 |  |  |  |  |  |  | 196 ± 21 nM | 0.00058 s⁻¹ | 2960 M⁻¹ s⁻¹ | 138 ± 15 nM | 0.00076 s⁻¹ | 5520 M⁻¹ s⁻¹ |  |  |  |  |  |  | B1
3 |  |  |  |  |  |  |  |  |  |  |  |  | 71 ± 8 nM | 0.00098 s⁻¹ | 13800 M⁻¹ s⁻¹ | 88 ± 8 nM | 0.00067 s⁻¹ | 7650 M⁻¹ s⁻¹ | microsomal cytochrome b5 (CYB5A) (natural protein, UniProt P00167 1-134, looked up, microsomal cytochrome b5 (CYB5A), recombinant) MAEQSDEAVKYYTLEEIQKHNHSKSTWLILHHKVYDLTKFLEEHPGGEEVLREQAGGDATENFEDVGHSTDAREMSKTFIIGELHPDDRPKLNKPPETLITTIDSSSSWWTNWVIPAISAVAVALMYRLYMAED
